# Experiments:
# UHRF1 full-length = molecular target: T1, UHRF1 full-length (human, UniProt Q96T88 1-793); experiment: pull-down; H3 (1-17) peptide; affinity not affected; ITC: 10 mM HEPES pH 8.0, 100 mM NaCl, 18 C; EMSA: 20 mM HEPES pH 7.5, 100 mM NaCl, 8% glycerol, 1 mM DTT, on ice; pull-down: 20 mM HEPES-NaOH pH 8.0, 100 mM NaC
# T1 sequence: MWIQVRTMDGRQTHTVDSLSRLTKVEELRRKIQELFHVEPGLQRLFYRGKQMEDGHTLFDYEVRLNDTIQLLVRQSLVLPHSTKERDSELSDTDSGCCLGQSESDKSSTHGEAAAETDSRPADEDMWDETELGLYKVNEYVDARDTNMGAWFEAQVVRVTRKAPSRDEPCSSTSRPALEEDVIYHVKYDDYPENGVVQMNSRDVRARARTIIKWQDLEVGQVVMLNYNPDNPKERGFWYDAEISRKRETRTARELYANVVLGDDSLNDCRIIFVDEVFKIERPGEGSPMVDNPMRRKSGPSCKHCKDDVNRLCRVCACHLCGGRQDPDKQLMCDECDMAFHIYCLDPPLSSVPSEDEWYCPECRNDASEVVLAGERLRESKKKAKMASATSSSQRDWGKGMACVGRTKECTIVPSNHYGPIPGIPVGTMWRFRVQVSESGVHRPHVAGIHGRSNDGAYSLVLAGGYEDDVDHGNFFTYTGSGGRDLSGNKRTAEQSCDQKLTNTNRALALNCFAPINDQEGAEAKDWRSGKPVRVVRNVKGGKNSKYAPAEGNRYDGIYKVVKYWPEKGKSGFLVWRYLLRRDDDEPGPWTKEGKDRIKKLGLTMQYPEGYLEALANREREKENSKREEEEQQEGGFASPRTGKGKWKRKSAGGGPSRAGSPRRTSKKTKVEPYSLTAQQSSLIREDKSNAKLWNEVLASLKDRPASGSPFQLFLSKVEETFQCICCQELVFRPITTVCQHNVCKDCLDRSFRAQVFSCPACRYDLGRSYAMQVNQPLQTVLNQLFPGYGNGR
# SRA-Spacer = molecular target: T2, SRA-Spacer (human, UniProt Q96T88 414-674); experiment: X-ray crystallography; 3.15 A; Spacer residues 617-674 not built; ITC: 10 mM HEPES pH 8.0, 100 mM NaCl, 18 C; EMSA: 20 mM HEPES pH 7.5, 100 mM NaCl, 8% glycerol, 1 mM DTT, on ice; pull-down: 20 mM HEPES-NaOH pH 8.0, 100 mM NaC
# T2 sequence: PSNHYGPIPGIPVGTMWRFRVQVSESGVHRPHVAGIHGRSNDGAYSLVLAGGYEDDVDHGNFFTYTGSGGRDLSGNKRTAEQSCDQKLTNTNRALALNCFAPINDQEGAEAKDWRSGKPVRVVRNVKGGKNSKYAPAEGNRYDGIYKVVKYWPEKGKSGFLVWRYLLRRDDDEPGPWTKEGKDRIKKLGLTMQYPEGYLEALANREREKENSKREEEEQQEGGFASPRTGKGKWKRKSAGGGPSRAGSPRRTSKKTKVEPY
Binder,binding result (UHRF1 full-length),binding result (SRA-Spacer)
"biotin-hm-DNA 12 bp (pull-down) (dsDNA, 5-methyl-dC at position 6 of strand 1 (GAGGCXGCCTGC)) DNA 1: GAGGCCGCCTGC DNA 2: GCAGGCGGCCTC",binds,–
"18-bp hm-DNA (crystal) (dsDNA, 5-methyl-dC at position 6 of strand 2 (GGGCCXGCAGGGACGATG)) DNA 1: CATCGTCCCTGCGGGCCC DNA 2: GGGCCCGCAGGGACGATG",–,binds

# — publication PMC4822050
